Source: patent publication US20240409598A1, “PEPTIDE INHIBITORS OF INTERLEUKIN-23 RECEPTOR” (Janssen Biotech, Inc., priority 2021, published 2024)
Blank lines part the entries; values can stand above or below the molecule they belong to. *1 amine or outer side, *2 acyl side, *3 side chain or, on linkers, in order; H or OH if unused. Bridges are numbered along the chain shown (N, C = ends). Primed or numbered codes have the meaning given here. [ ]: non-standard residue; d: D form. AEF(G) = 4-(2-guanidinoethoxy)phenylalanine, N=C(N)NCCOc1ccc(C[C@H](N[*:1])C(=O)[*:2])cc1; Trp(7-Me) = Cc1cccc2c(C[C@H](N)C(=O)O)c[nH]c12; 3Pal(5-Me) = Cc1cncc(C[C@H](N)C(=O)O)c1; 2Nal = N[C@@H](Cc1ccc2ccccc2c1)C(=O)O; 3Pal = N[C@@H](Cc1cccnc1)C(=O)O; Pen = CC(C)(S)[C@H](N)C(=O)O; αMeC = C[C@](N)(CS)C(=O)O; AEF′ = not defined here; Abu = CC[C@H](N)C(=O)O; THP = not defined here; Sar = CNCC(=O)O

Columns and labels:
[1] = test system: peripheral blood mononuclear cells (PBMCs); assay: PBMC pSTAT3 Assay; assay type: cell-based; details: PBMCs from healthy donors; IL-23 5 ng/ml; 30 minutes stimulation
Procedure: Cryopreserved peripheral blood mononuclear cells (PBMCs) from healthy donors were thawed and washed twice in ImmunoCult-XF T cell expansion medium (XF-TCEM) supplemented with CTL anti-aggregate wash. The cells were counted, resuspended at 2×10^5 cells per mL XF-TCEM supplemented with penicillin/streptomycin and 100 ng/ml […] (BioLegend, 579404), and cultured in tissue culture flasks coated with anti-CD3 (eBioscience, 16-0037-85 or BD Pharmingen, 555329) at 37° C. in 5% CO2. On day 4 of culture, PBMCs were collected, washed twice in RPMI-1640 supplemented with 0.1% BSA (RPMI-BSA), and incubated in RPMI-BSA in upright tissue culture flasks for 4 hours at 37° C. in 5% CO2. Following this ‘starvation,’ a total of 6×10^4 cells in 30 μL RPMI-BSA was transferred into each well of a 384-well plate pre-spotted with peptide or DMSO. The cells were incubated for 30 minutes prior to the addition of IL-23 at a final concentration of 5 ng/ml. The cells were stimulated with cytokine for 30 minutes at 370C in 5% CO2, transferred onto ice for 10 minutes, and lysed. Cell lysates were stored at −80° C. until phosphorylated STAT3 was measured using the phospho-STAT panel kit (Meso Scale Discovery, K15202D).

[2] = molecular target: T1, interleukin-23 receptor (IL-23R) (UniProt Q5VWK5 24-629, limits assumed); assay: cell-based or functional assay
T1 sequence (looked up): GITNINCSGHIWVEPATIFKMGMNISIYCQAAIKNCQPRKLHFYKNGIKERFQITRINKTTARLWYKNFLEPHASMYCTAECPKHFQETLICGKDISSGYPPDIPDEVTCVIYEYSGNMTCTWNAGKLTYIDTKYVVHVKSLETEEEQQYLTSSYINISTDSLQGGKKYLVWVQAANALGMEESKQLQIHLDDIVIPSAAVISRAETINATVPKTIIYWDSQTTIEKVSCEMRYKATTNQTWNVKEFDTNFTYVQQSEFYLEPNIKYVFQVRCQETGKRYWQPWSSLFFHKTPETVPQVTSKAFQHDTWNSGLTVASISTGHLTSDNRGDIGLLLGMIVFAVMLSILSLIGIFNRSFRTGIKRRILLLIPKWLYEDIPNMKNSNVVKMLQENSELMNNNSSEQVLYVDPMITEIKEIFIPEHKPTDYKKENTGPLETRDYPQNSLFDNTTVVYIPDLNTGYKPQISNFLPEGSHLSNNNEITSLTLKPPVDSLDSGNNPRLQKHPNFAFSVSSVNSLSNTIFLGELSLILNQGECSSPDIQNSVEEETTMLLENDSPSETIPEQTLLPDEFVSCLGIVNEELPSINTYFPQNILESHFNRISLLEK

[3] = molecular target: T1, interleukin-23 receptor (IL-23R); assay: cell-based or functional assay; remark: listed apart in the source

Molecule: MeCO-r-Abu (1)-N-T-W-K(Ac)-aMeC (1)-AEF-2Nal-THP-E-N-3Pya-Sar-CONH2 [compound 478]
IC50 [1]: 0.015 nM

Molecule: MeCO-r-Pen-N-T-7MeW-K(Ac)-Pen-AEF-2Nal-THP-E-N-5MePyridinAla-Sar-CONH2 [compound 345]
IC50 [1]: 0.0076 nM

IC50, IL23R Reporter Assay [2]: 91 nM | PBMC pSTAT3 IC50 [3]: 0.0055 nM
B1: Compound 477 (peptide)
peptide: Ac-[Pen]NT[Trp(7-Me)]K(Ac)[Pen][AEF(G)][2Nal][THP]EN[3Pal][Sar]-NH2
modifications: disulfide 1-6; reading uncertain; also: printed as MeCO-Pen-N-T-7MeW-K(Ac)-Pen-AEF(G)-2Nal-THP-E-N-3Pya-Sar-CONH2

PBMC pSTAT3 IC50 [3]: 0.015 nM
B2: Compound 478 (peptide)
peptide: Ac-[dR][Abu]NTWK(Ac)[αMeC][AEF′][2Nal][THP]ENX[Sar]-NH2
modifications: thioether 2-7; not fully specified (residue 13); printed as MeCO-r-Abu (1)-N-T-W-K(Ac)-aMeC (1)-AEF-2Nal-THP-E-N-3Pya-Sar-CONH2

IC50, IL23R Reporter Assay [2]: 5 nM | PBMC pSTAT3 IC50 [3]: 0.0076 nM
B3: Compound 345 (peptide)
peptide: Ac-[dR][Pen]NT[Trp(7-Me)]K(Ac)[Pen][AEF′][2Nal][THP]EN[3Pal(5-Me)][Sar]-NH2
modifications: disulfide 2-7; reading uncertain; also: printed as MeCO-r-Pen-N-T-7MeW-K(Ac)-Pen-AEF-2Nal-THP-E-N-5MePyridinAla-Sar-CONH2
